How the values were obtained:
[1] = biological target: T1, 人CD47胞外段-His tag重组蛋白 (SinoBiological 12283-H08H) (human, UniProt Q08722 19-139); experiment: BLI (Octet K2), HIS1K sensor loaded with CD47-his tag, antibody in solution, 1:1 fit
T1 construct: extracellular domain; Bought reagent; Captured on HIS1K sensor; also called CD47-his tag蛋白

[2] = biological target: T2, 经生物素标记的CD47-hFc蛋白 (biotin-labelled CD47-hFc protein, expressed in house) (UniProt Q08722 19-141, biotin-labelled (site not stated)); experiment: BLI (Octet K2), SA sensor loaded with biotinylated CD47-hFc, antibody in solution, 1:1 fit
T2 construct: Self-expressed; Captured on SA sensor
T2 sequence (Q08722 19-141): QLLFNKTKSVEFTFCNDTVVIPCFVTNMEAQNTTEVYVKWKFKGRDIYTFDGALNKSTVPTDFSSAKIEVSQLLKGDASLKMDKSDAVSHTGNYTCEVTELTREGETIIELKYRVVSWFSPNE

T1 sequence (Q08722 19-139 limits assumed): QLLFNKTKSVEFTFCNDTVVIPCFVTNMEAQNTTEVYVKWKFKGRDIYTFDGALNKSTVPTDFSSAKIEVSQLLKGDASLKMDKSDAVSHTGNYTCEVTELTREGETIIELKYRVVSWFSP

Binder	Kd [1] [pM]	Kd [2] [pM]
7DC2 (antibody, human IgG1, kappa, V domains shown, Full-length chimeric antibody (mouse variable regions, human constant regions); also called 7DC2抗体) VH: QVQLQQSGPELVKPGASVKMSCKASGYTFTNYFMHWVKQKPGQGLEWIGYINPYNDGTKYNEKFKGKATLTSDKSSSTAYMELSSLTSEDSAVYYCTKGGRYSMDYWGQGTTLTVSS VL: DVVMTQTPLSLPVRLGDEVSISCRSSQTIVFTNGNTYLEWYLQKPGQSPKLLIYKVSNRFSGVPDRFSGSGSGTDFTLTISRVEAEDLGIYYCFQGSHVPYTFGGGTKLELKR	221	192
7DC4 (antibody, human IgG1, kappa, V domains shown, Full-length chimeric antibody (mouse variable regions, human constant regions); also called 7DC4抗体) VH: QVQLKQSGAELVQPGASVKLSCKASGYTFTNYYMYWLRQRPGQGLEWIGEINPSNGGTDFNEKFKSKATLTVDKSSSTAFMQLSSLTSDDSAVYYCARGGFTMDYWGQGTTVTVSS VL: DVVMTQTPLSLPVSLGDQASISCRSSQSLVHSNGNTYLHWYLQKPGQSPKLLIYKVSNRFSGVPDRFSGSGSGTDFTLKISRVEAEDLGVYFCSQSTHVPLTFGAGTKLELKR	20.2	27.6
